Test [1] addresses T1, FLAG-tagged soluble muBAFF (murine, UniProt Q9WU72 127-309, limits assumed).
T1 construct: not shown: FLAG tag
Kind of test: co-immunoprecipitation on protein A-Sepharose, anti-FLAG M2 Western blot. The protocol:
250 μl of Optimem containing hTACI(1-160)-Ig was mixed with various FLAG ligands of the TNF family. Some of the ligands were in Optimem while others were anti-FLAG (mAb M2)-purified. The common characteristic was that the amount used was empirically the same (500 ng for purified ligands, i.e. hBAFF, muBAFF, TRAIL, FasL, EDA). Ligands were produced in bacteria (HBAFF, TRAIL) or transiently expressed in 293 EBNA cells (all others). Control Receptors-Fc were mostly used as Optimem supernates, except TNFR1, OX40, LTBR, which were purified over protein-A columns. 1 μg of purified receptors was used. Receptor-Fc proteins (about 1 μg) were mixed with FLAG-ligands (about 500 ng). Volume was adjusted to 1.2 ml with PBS and 5 μl of protein A-Sepharose was added. Incubation was performed for 1 h at 4° C. on a wheel. Beads were harvested by centrifugation and loaded onto a minicolumn (yellow tips with 1 mm diameter frit). Washes were performed by applying vacuum at the bottom of the column to aspirate medium and 2 times 400 μl PBS washes. The dried beads were eluted with 20 μl of Citrate-NaOH pH 2.7 and the eluate was neutralized with 6 μl of 1M Tris-HCl pH 9.0. 10 μl 3x sample buffer plus DTT was added, the sample was boiled and 22 μl loaded for Western blot analysis. […] ECL was used to illuminate the signal. […]
For orientation: A western blot detects proteins with antibodies after separation by electrophoresis.

The target of test [2] is T2, N-terminally FLAG-tagged full length human TACI, expressed on 293EBNA cells (plasmid pJST552) (human, UniProt O14836 1-293).
T2 construct: also called flag-tagged full length TACI; TACI transfected cells; not shown: N-terminal FLAG tag (and any leader) of the pJST552 insert
T2 sequence: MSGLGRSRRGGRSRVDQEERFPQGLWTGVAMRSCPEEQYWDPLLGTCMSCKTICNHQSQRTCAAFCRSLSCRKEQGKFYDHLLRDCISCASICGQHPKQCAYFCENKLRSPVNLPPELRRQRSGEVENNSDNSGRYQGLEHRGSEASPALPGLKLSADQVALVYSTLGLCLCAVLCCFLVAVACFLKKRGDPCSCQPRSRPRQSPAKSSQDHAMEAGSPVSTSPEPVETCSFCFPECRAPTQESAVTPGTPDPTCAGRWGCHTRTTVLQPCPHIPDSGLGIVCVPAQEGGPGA
Kind of test: FACS on 293EBNA cells transfected with pJST552; rabbit anti-murine APRIL and donkey anti-rabbit-PE. The protocol: FIG. 8 is a schematic representation of purified myc-tagged murine APRIL binding to TACI transfected cells. 293EBNA cells were transfected with expression plasmid pJST552 that expressed FLAG-tagged full length human TACI. Cells were harvested 48 hours later using 5 mM EDTA and stained with myc-tagged murine APRIL at various concentrations. No protein control was stained with detection reagents (rabbit anti-murine APRIL and donkey anti-rabbit-PE (Jackson Immnunoresearch)). Staining in FL1 of protein encoded by the cotransfected GFP expression plasmid illustrates expression efficiency.
293EBNA cells were co-transfected with a plasmids expressing full length N-terminally FLAG tagged human TACI (pJST552)(see FIG. 2), and a GFP marker, (AN050). Transfections were performed using Lipofectamine 2000 (LifeTechnologies) according to manufacturer's conditions. Transfection media was DMEM supplemented with 10% FBS, 4 mM glutamine, and 50 μM Z-VAD (BACHEM Bioscience Inc.) Cells were harvested with PBS supplemented with 5 mM EDTA at 24 hours post-transfection. Cells were washed in FACS buffer (PBS-10% FBS-0.02% NaN₃) and resuspended at a density of 5×10⁶ cells/mL. […] The samples were analyzed by FACS and plotted (FIG. 8). Cell gate analyzed is shown as R1. […]

The values below come from patent US20040013674A1 (APOXIS, published 2004).

T1 sequence (Q9WU72 127-309 limits assumed): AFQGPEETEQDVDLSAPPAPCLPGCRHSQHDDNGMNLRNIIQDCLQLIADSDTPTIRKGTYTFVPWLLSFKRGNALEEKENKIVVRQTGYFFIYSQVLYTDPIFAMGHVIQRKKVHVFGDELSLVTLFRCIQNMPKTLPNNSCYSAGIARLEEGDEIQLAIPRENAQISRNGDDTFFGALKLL

B1: human TACI(1-160)-Ig fusion protein (plasmid PS882) (Fc fusion)
chain: MSGLGRSRRGGRSRVDQEERFPQGLWTGVAMRSCPEEQYWDPLLGTCMSCKTICNHQSQRTCAAFCRSLSCRKEQGKFYDHLLRDCISCASICGQHPKQCAYFCENKLRSPVNLPPELRRQRSGEVENNSDNSGRYQGLEHRGSEASPALPGLKLSADQV
notes: Used as conditioned medium (Optimem) of 293 cells; also called hTACI(1-160)-Ig; soluble hTACI(1-160)-Ig; not shown: human IgG Fc
For B1, the binding result in test [1] is on record as “no binding (tested: 500 ng purified ligand)”.

B2: myc-tagged murine APRIL (A88), expressed in Pichia pastoris (plasmid pCMM276) (ligand)
chain: EQKLISEEDLNGGGGSKELAVLTQKHKKKHSVLHLVPVNITSKDSDVTEVMWQPVLRRGRGLEAQGDIVRVWDTGIYLLYSQVLFHDVTFTMGQVVSREGQGRRETLFRCIRSMPSDPDRAYNSCYSAGVFHLHQGDIITVKIPRANAKLSLSPHGTFLGFVKL
modifications: glycosylated (as printed in paragraph 69)
notes: also called myc-muAPRIL; Myc-Murine APRIL A88
As to B2, the binding result in test [2] is “binds”.
